# Data reported in the RNAGym collection of RNA variant scans (doi:10.1073/pnas.2313332121).
# B1: TPR t1 (parent)
# chain: GACCAAUCUGCCCUCAGAGCUCGAGAACAUCUUCGGAUGCAGAGGAGGCAGGCUUCGGUGGCGCGAUAGCGCCAACGUCCUCAACCUCCAAUGCAUCCCACCACAUGAUGAUGCCUGAAGAGCCUUGGUUUUUUG
# Variants of: B1
# Test: polymerase ribozyme fitness, log enrichment relative to wild type (log ratio); higher = more active; in vitro selection for triplet polymerase activity
# Method in brief: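 Each subunit of a heterodimeric triplet polymerase ribozyme was represented by a PCR-built, transcribed mutant library that underwent triplicate single-round in vitro selection with frozen incubation at −7 °C. Extended constructs were recovered by gel excision, streptavidin-bead capture and RT-PCR, and Illumina sequencing of input and output libraries kept genotypes with ≥10 input reads and ≥1 read per output. Fitness is the logarithm of genotype enrichment relative to wild-type enrichment, from inverse-variance-weighted replicate averages, with a logarithm base of 2.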
row,Variant,polymerase ribozyme fitness (log ratio)
1,GACCAAUCAGCCCUCAGAGCUCGAGAACAUCUUCGGAUGCAGAGGAGGCAGCCUUCGGUGGCGCGAUAGCGCCAACGUCCUCAACCUCCAAUGUAUCCCAACACAUGAUGAUGCCUGAAGAGCCUUGGUUUUUUG [U9A G52C C94U C101A],-1.78
2,GACCAAUCAGCCCUCAGAGCUCGAGAACAUCUUCGGAUGCAGAGGAUGCAGGCUUCGGUGGCCCGAUAGCGCCAACGUCCUCAACCUCCAAUGCAUCCCACCACAUGAUGAUGCCUGAAGAGCCUUGGUCUUUUG [U9A G47U G63C U130C],0.0031
3,GACCAAUCAACCCUCAGAGCUCGAGAACAUCUUCGGAUGAAGAGGAGGCAGGCUUCGGUGGCGCGAUAGUGCCAACGCCCUCAACCUCCAAUGCAUCCCACCACAUGAUUAUGCCUGAAGAGUCUUGGUUUUUUG [U9A G10A C40A C70U U78C G110U C123U],-4.89
4,GACCAAUCAGCCCUCAGAGCUCGAGAACAUCUUCGGAUGCAGAGGAGGCAGGCUUCGGUGGCGCGAUAGCGCCAACGUCCUCAACAUCCAAUGCAUCUCACCACAUGAUGAUGCCUGAAGAGCCUUGGUUUUUUG [U9A C86A C98U],-0.22
5,GACCAAUCAGCCCUCAGAGCUCGAGAACAUCUUCGGAUGCAGAGGAGGCAGGCUUCGGUGGCGCGAUAGCGCCAACGUCCUCAACCUCCAAUGCAUCCCACCACAUUAUGAUGCCUCAAGAGCCUUGGUUUUUUG [U9A G107U G117C],-6.35
6,GACCAAUCAGCCCUCAGAGCUCGAGAACAUCUUCGGAUGCAGAGGAGGCAGGCUUCGGUGGCGCGAUAGCGCCAACGUCUUCAACCUCCAAUGCAUCCCACCACAUGAUGAUGCCUGAAGAGCCUUGGUUUUUUG [U9A C80U],0.294
7,GACCAAUCAGCCCUCAGAGCUCGAGAACAUCUUCGGAUGCAAAGGAGGCAGGCUUCGGUGGCGCGAUAGCGCCAACGUCCUCAACUUCCAAUGCAUCCCACCAGAUGAUUAUGCCUGAAGAGCCUUGGUUUUUUG [U9A G42A C86U C104G G110U],-7.22
8,GACCAAUCAGCCCUCAGAGCUCGAGAACAUCUUCGGAUGCAGAGGAUGCCGGCUUCGGUGGCGCGAUAGCGCCAACGUCCUCAACCUCCAAUGCAUCCCACCACAUGAUGAUGCCUGAAGAGCCUUGGUUUUUUG [U9A G47U A50C],-1.68
9,GACCAAUCAGCCCUCAGAGCUCGAGAACAUCUUCGGAUGCAGAGGAGGCAGGCUUCGGUGGCGCGAUAGCGCCAACGUCCUCAACCUCCAAUGCAUCCCACCACAUGAUGAUGCCUUAAGAGCCUUGGUUUUUUG [U9A G117U],-1.08
10,GACCAAUCAGCCCUCAGAGCUCGAGAACAUCUUCGCAUGCAGAGGAGGCAGGCUUCGGUGGCGCGAUAGCGCCAACGUCCUCAACCUCCAAUGCAUCCCACCACAUGAUGAUGCCUGAAGAGCCUUGGUUUUUUG [U9A G36C],0.19
11,GACCAAUCAGCCCUCAGAGCUCGAGAACAUCUUCGGAUGCAGAGGAGGCAGGCUUCGGUGACGCGAUAGCGCCAACGUCCUCAACCUCCAAUGCAUCCCACCACAUGAUGAUGCCUGAAGAGCCUUGGUUUUUUG [U9A G61A],0.705
12,GACCAAUCAGCCCUCAGAGCUCGAGAACAUCUUCGGAUGCAGAGGAGGCAGGCUUCGGUGGCGCGAUAGCGCCAACGUCCUCAAUCUCCAAUGCAUCCCACCACAUGAUGAUGCCUGAAGAGCCUUGGUUUUUUG [U9A C85U],0.475
13,GACCAAUCAGCCCUCAGAGCUCGAGAACAUCUUCGGAUGCAGAGGAGGCAGGCUUCGGUGGCGCGAUAGCGCUAACGUCCUCAACCUCCAAUGCAUCCCACCACAUGAUGAUACCUGAAGAGCCUUGGUUUUUUG [U9A C73U G113A],-0.0138
14,GACCAAUCAGCCCUCAGAUCUCGAGAACAUCUUCGGAUGCAAAGGGGGCAGGCUUCGGUGGCGCGAUAGCGCCAACGCCCUCAACCUCCAAUGCAUCCCACCACAUGAUGAUGCCUGAAGAGCCUUGGUUUUUUG [U9A G19U G42A A46G U78C],-4.66
15,GACCAAUCAGCCCUCAGAGCUCGAGAACAUCUUCGGAUGCAGAGGAGGCAGGCUUCGGUGGCGCGAUAGCGGCAACGUCCUCAACCUCCAAUGCAUCCCACCACAUGAUGAUGCCUGAAGAGCCUUGGUUUUUUG [U9A C72G],-0.0842
16,GACCAAUCAGCCCUCAGAGCUCGAGAACAUCUUCGGAUGCAGAGGAGGCAGGCUUCGGUGGCGCGAUAGCGACAACGUCCUCUACCUCCAAUGCAUCCCACCACAUGAUGAUGCCUGAAGAGCCUUGGAUUUUUG [U9A C72A A83U U129A],-0.91
17,GACCAAUCAGCCCUCAGAGCUCGAGAACAUCUUCGGAUGCAGAGGAGGCAGGCUUCGGUGGCGCGAUAGUGCCAACGACCUCAACCUCCAAUGCAUCCCACCACAUGAUGAUGCCUGAAGAGCCUUGGUUUUUUG [U9A C70U U78A],-0.654
18,GACCAAUCAGCCCUCAUAGCUCGAGAACAUCUUCGGAUGCAGAGGAGGCAGGCUUCGGUGGCGCGAUAGCGCCAACGCCCUGAACGUCCAAUGCAUCCCACCACAUGAUGAUGCCUGAAGAGCUCUGGUUUUUUG [U9A G17U U78C C82G C86G C124U U125C],-0.551
19,GACCAAUCAGCCCUCAGAGCUCGAGAACAUCUUCGGAUGCAGAGGAGGCAGGCUUCGGUGACGCGAUAGCGCCAUCGUCCUCAACCUCCAAUGCAGCCCACCACAUGAUGAUGCCUGAAGGGCCUUGGCUUUUUU [U9A G61A A75U U96G A121G U129C G135U],0.515
20,GACCAAUCAGCCCUCAGAGCUCGAGAACAUCUUCGGAUGCAGAGGAGGCAGGCUUCGGUGGCGCGAUAGCUCCAACGUCCUCAACCUCCAAUGCAUCCCACCAUAUGAUGAUGCCUGAAGAGCCUUGGUUUUUUG [U9A G71U C104U],0.24
21,GACCAAUCAGCCCUCAGAGCUCGAGAACAUCUUCGGAUGCAGAGAAGGCAGGCUUCGGUGGCGCGAUAGCGCCAACGUCCUCAACCUCCAAUGCAUCCCACCACAUGAUGAUGCCUGAAGAGCCUUGGUUUUUUG [U9A G45A],-0.107
